In patent US20160108110A1 (Novartis, published 2016):

T1: Human ANGPTL4(26-406)-FLAG-His6-Avi (human, UniProt Q9BY76 24-406, biotin on the C-terminal Avi tag in the biotinylated preparations (immobilised form in SET, ELISA and Octet))
T1 construct: also called full-length human ANGPTL4; hANGPTL4
T1 sequence: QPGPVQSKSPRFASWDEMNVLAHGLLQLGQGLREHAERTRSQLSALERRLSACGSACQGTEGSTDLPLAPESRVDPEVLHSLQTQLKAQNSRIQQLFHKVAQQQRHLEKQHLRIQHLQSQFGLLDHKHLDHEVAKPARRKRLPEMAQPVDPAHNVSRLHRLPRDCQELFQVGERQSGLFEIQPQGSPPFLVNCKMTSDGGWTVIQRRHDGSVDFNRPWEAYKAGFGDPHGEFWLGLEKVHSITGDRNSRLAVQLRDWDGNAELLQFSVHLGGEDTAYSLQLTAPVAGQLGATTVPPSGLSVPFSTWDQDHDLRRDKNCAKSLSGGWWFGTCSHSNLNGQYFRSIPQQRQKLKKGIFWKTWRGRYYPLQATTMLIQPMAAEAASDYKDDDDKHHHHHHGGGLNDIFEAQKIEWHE


Molecular target: T1, Human ANGPTL4(26-406)-FLAG-His6-Avi
Assay: SET assay
Protocol: SET assays were performed as follows. In a 96-well polypropylene plate, a constant concentration of ANGPTL4 antibody was mixed with different concentrations of non-biotinylated human, cyno, mouse, or rat full-length ANPGLT4 protein, or human ANGPTL4 N-terminal domain protein (5-fold serial dilution) and incubated at 22° C. for 14 hours with constant shaking (300 rpm). On a pre-blocked 384-well streptavidin-coated Meso Scale Discovery (MSD) plate biotinylated ANGPTL4 (full-length human, cyno, mouse, or rat ANGPTL4, or human ANGPTL4 N-terminal domain) protein (1 nM, 15 μL per well) was immobilized and washed thereafter.
The equilibrium binding reactions (15 μL per well) were applied to the MSD plate with immobilized ANGPTL4 and incubated for 20 min at 22° C. The unbound material was removed by washing the plate 3 times with wash buffer, and the captured antibody was detected by adding Sulfo-tagged goat anti-human IgG (Meso Scale Discovery). After washing MSD read buffer T was added and the plate was developed using a Sector Imager 6000 (Meso Scale Discovery). The data were transferred to Microsoft Excel for analysis and plotted using GraphPad Prism v6. The KD values were determined by fitting the data to the following equation: […]
where Bₘₐₓ is the signal when no ANGPTL4 protein is present in solution, CAb is the constant concentration of ANGPTL4 antibody in solution, CAg is the concentration of ANGPTL4 in solution, and KD is the equilibrium dissociation constant.

| Binder | Kd [pM] |
| --- | --- |
| MOR023407 (antibody, human IgG1, kappa, V domains shown, built on the parent antibody for IgG conversion MOR022771 with residues 89-96 of the light chain replaced; Parent Fab MOR021830 has another HCDR2 (D53) and Q1 in the VH) VH: EVQLLESGGGLVQPGGSLRLSCAASGFTFSSYWMHWVRQAPGKGLEWVSGISYSGSSTNYADSVKGRFTISRDNSKNTLYLQMNSLRAEDTAVYYCARDSYIYDLHWGFDNWGQGTLVTVSS VL: DIQMTQSPSSLSASVGDRVTITCRASQDISSYLNWYQQKPGKAPKLLIYAASRLQSGVPSRFSGSGSGTDFTLTISSLQPEDFATYYCFQMYYHPYTFGQGTKVEIKR | 1 |
| MOR023402 (antibody, human IgG1, kappa, V domains shown, as MOR023400: built on MOR022771, limits derived) VH: EVQLLESGGGLVQPGGSLRLSCAASGFTFSSYWMHWVRQAPGKGLEWVSVIGYSGTHTNYADSVKGRFTISRDNSKNTLYLQMNSLRAEDTAVYYCARDSYIYDLHWGFDNWGQGTLVTVSS VL: DIQMTQSPSSLSASVGDRVTITCRASQDISSYLNWYQQKPGKAPKLLIYAASRLQSGVPSRFSGSGSGTDFTLTISSLQPEDFATYYCQQSYTHPYTFGQGTKVEIKR | 1 |
| MOR023410 (antibody, human IgG1, kappa, V domains shown, as MOR023407: built on MOR022771, limits derived) VH: EVQLLESGGGLVQPGGSLRLSCAASGFTFSSYWMHWVRQAPGKGLEWVSGISYSGSSTNYADSVKGRFTISRDNSKNTLYLQMNSLRAEDTAVYYCARDSYIYDLHWGFDNWGQGTLVTVSS VL: DIQMTQSPSSLSASVGDRVTITCRASQDISSYLNWYQQKPGKAPKLLIYAASRLQSGVPSRFSGSGSGTDFTLTISSLQPEDFATYYCQQAYFAPYTFGQGTKVEIKR | < 1 |
| MOR023406 (antibody, human IgG1, kappa, V domains shown, as MOR023400: built on MOR022771, limits derived) VH: EVQLLESGGGLVQPGGSLRLSCAASGFTFSSYWMHWVRQAPGKGLEWVSYIPYMGPGKFYADSVKGRFTISRDNSKNTLYLQMNSLRAEDTAVYYCARDSYIYDLHWGFDNWGQGTLVTVSS VL: DIQMTQSPSSLSASVGDRVTITCRASQDISSYLNWYQQKPGKAPKLLIYAASRLQSGVPSRFSGSGSGTDFTLTISSLQPEDFATYYCQQSYTHPYTFGQGTKVEIKR | 3 |
| MOR023411 (antibody, human IgG1, kappa, V domains shown, as MOR023407: built on MOR022771, limits derived) VH: EVQLLESGGGLVQPGGSLRLSCAASGFTFSSYWMHWVRQAPGKGLEWVSGISYSGSSTNYADSVKGRFTISRDNSKNTLYLQMNSLRAEDTAVYYCARDSYIYDLHWGFDNWGQGTLVTVSS VL: DIQMTQSPSSLSASVGDRVTITCRASQDISSYLNWYQQKPGKAPKLLIYAASRLQSGVPSRFSGSGSGTDFTLTISSLQPEDFATYYCQQAYYHPYTFGQGTKVEIKR | 2 |
| MOR023400 (antibody, human IgG1, kappa, V domains shown, built on the parent antibody for IgG conversion MOR022771 with residues 48-66 of the heavy chain replaced; Parent Fab MOR021830) VH: EVQLLESGGGLVQPGGSLRLSCAASGFTFSSYWMHWVRQAPGKGLEWVSGIPYQGPAINYADSVKGRFTISRDNSKNTLYLQMNSLRAEDTAVYYCARDSYIYDLHWGFDNWGQGTLVTVSS VL: DIQMTQSPSSLSASVGDRVTITCRASQDISSYLNWYQQKPGKAPKLLIYAASRLQSGVPSRFSGSGSGTDFTLTISSLQPEDFATYYCQQSYTHPYTFGQGTKVEIKR | 1 |
| MOR023416 (antibody, V domains shown, as MOR023415: built on parent Fab MOR021798, limits derived) VH: QVQLLESGGGLVQPGGSLRLSCAASGFTFSDYALHWVRQAPGKGLEWVSRITYTGLYTYYADSVKGRFTISRDNSKNTLYLQMNSLRAEDTAVYYCAREHYYSSPMGGVAVDNWGQGTLVTVSS VL: DIVLTQPPSVSGAPGQRVTISCSGSSSNIGYNTVSWYQQLPGTAPKLLIYSNNIRPSGVPDRFSGSKSGTSASLAITGLQAEDEADYYCSSWDFLIKSLVFGGGTKLTVL | 1 |

Further lines, results first:

| Kd [pM] | Binder |
| --- | --- |
| < 1 | MOR023439 (antibody, human IgG1, kappa, V domains shown, built on the parent antibody for IgG conversion MOR022768 with residues 48-66 of the heavy chain replaced; Parent Fab MOR021823) VH: EVQLLESGGGLVQPGGSLRLSCAASGFTFSSYYLHWVRQAPGKGLEWVSGISSGGSYINYADSVKGRFTISRDNSKNTLYLQMNSLRAEDTAVYYCARERSYAHDHWGQGTLVTVSS VL: DIQMTQSPSSLSASVGDRVTITCRASQDIYIDLNWYQQKPGKAPKLLIYAASKLQSGVPSRFSGSGSGTDFTLTISSLQPEDFATYYCQQGYFLPQTFGQGTKVEIKR |
| < 1 | MOR023441 (antibody, human IgG1, kappa, V domains shown, as MOR023439: built on MOR022768, limits derived) VH: EVQLLESGGGLVQPGGSLRLSCAASGFTFSSYYLHWVRQAPGKGLEWVSSIAGMGNYIDYADSVKGRFTISRDNSKNTLYLQMNSLRAEDTAVYYCARERSYAHDHWGQGTLVTVSS VL: DIQMTQSPSSLSASVGDRVTITCRASQDIYIDLNWYQQKPGKAPKLLIYAASKLQSGVPSRFSGSGSGTDFTLTISSLQPEDFATYYCQQGYFLPQTFGQGTKVEIKR |
| < 1 | MOR023448 (antibody, human IgG1, kappa, V domains shown, as MOR023439: built on MOR022768, limits derived) VH: EVQLLESGGGLVQPGGSLRLSCAASGFTFSSYYLHWVRQAPGKGLEWVSSISSISGFTEYADSVKGRFTISRDNSKNTLYLQMNSLRAEDTAVYYCARERSYAHDHWGQGTLVTVSS VL: DIQMTQSPSSLSASVGDRVTITCRASQDIYIDLNWYQQKPGKAPKLLIYAASKLQSGVPSRFSGSGSGTDFTLTISSLQPEDFATYYCQQGYFLPQTFGQGTKVEIKR |
| < 1 | MOR023447 (antibody, human IgG1, kappa, V domains shown, as MOR023439: built on MOR022768, limits derived) VH: EVQLLESGGGLVQPGGSLRLSCAASGFTFSSYYLHWVRQAPGKGLEWVSSISSAGVYKDYADSVKGRFTISRDNSKNTLYLQMNSLRAEDTAVYYCARERSYAHDHWGQGTLVTVSS VL: DIQMTQSPSSLSASVGDRVTITCRASQDIYIDLNWYQQKPGKAPKLLIYAASKLQSGVPSRFSGSGSGTDFTLTISSLQPEDFATYYCQQGYFLPQTFGQGTKVEIKR |
| 1 | MOR023412 (antibody, human IgG1, kappa, V domains shown, as MOR023407: built on MOR022771, limits derived) VH: EVQLLESGGGLVQPGGSLRLSCAASGFTFSSYWMHWVRQAPGKGLEWVSGISYSGSSTNYADSVKGRFTISRDNSKNTLYLQMNSLRAEDTAVYYCARDSYIYDLHWGFDNWGQGTLVTVSS VL: DIQMTQSPSSLSASVGDRVTITCRASQDISSYLNWYQQKPGKAPKLLIYAASRLQSGVPSRFSGSGSGTDFTLTISSLQPEDFATYYCQQAYYPPYTFGQGTKVEIKR |
| < 1 | MOR023446 (antibody, human IgG1, kappa, V domains shown, as MOR023439: built on MOR022768, limits derived) VH: EVQLLESGGGLVQPGGSLRLSCAASGFTFSSYYLHWVRQAPGKGLEWVSSISSAGHYIDYADSVKGRFTISRDNSKNTLYLQMNSLRAEDTAVYYCARERSYAHDHWGQGTLVTVSS VL: DIQMTQSPSSLSASVGDRVTITCRASQDIYIDLNWYQQKPGKAPKLLIYAASKLQSGVPSRFSGSGSGTDFTLTISSLQPEDFATYYCQQGYFLPQTFGQGTKVEIKR |
| < 1 | MOR023443 (antibody, human IgG1, kappa, V domains shown, as MOR023439: built on MOR022768, limits derived) VH: EVQLLESGGGLVQPGGSLRLSCAASGFTFSSYYLHWVRQAPGKGLEWVSSIASSSPATHYADSVKGRFTISRDNSKNTLYLQMNSLRAEDTAVYYCARERSYAHDHWGQGTLVTVSS VL: DIQMTQSPSSLSASVGDRVTITCRASQDIYIDLNWYQQKPGKAPKLLIYAASKLQSGVPSRFSGSGSGTDFTLTISSLQPEDFATYYCQQGYFLPQTFGQGTKVEIKR |
| < 1 | MOR023413 (antibody, human IgG1, kappa, V domains shown, as MOR023407: built on MOR022771, limits derived) VH: EVQLLESGGGLVQPGGSLRLSCAASGFTFSSYWMHWVRQAPGKGLEWVSGISYSGSSTNYADSVKGRFTISRDNSKNTLYLQMNSLRAEDTAVYYCARDSYIYDLHWGFDNWGQGTLVTVSS VL: DIQMTQSPSSLSASVGDRVTITCRASQDISSYLNWYQQKPGKAPKLLIYAASRLQSGVPSRFSGSGSGTDFTLTISSLQPEDFATYYCQQYYYPPYTFGQGTKVEIKR |
| 1 | MOR023415 (antibody, V domains shown, built on parent Fab MOR021798 with residues 48-66 of the VH replaced) VH: QVQLLESGGGLVQPGGSLRLSCAASGFTFSDYALHWVRQAPGKGLEWVSRITYTGFYTFYADSVKGRFTISRDNSKNTLYLQMNSLRAEDTAVYYCAREHYYSSPMGGVAVDNWGQGTLVTVSS VL: DIVLTQPPSVSGAPGQRVTISCSGSSSNIGYNTVSWYQQLPGTAPKLLIYSNNIRPSGVPDRFSGSKSGTSASLAITGLQAEDEADYYCSSWDFLIKSLVFGGGTKLTVL |
